# Experimental data as given in patent US6387696.
# Columns and labels:
# [1] = biological target: recombinant human calcium channel α1B-1α2bβ1-2 on transfected HEK293 cells (human); test: ω-CgTx binding to transiently transfected HEK293 cells (8, 5 and 2 µg plasmids)
# [2] = biological target: recombinant human calcium channel α1B-1β1-2 on transfected HEK293 cells (human); test: saturation binding of 125I-ω-CgTx GVIA to transiently transfected HEK293 cells
# [3] = biological target: recombinant human calcium channel α1B-2β1-3 on transfected HEK293 cells (human); test: as above
# [4] = biological target: recombinant human calcium channel α1B-2α2bβ1-2 on transfected HEK293 cells (human); test: as above
# [5] = biological target: recombinant human calcium channel α1B-2α2bβ1-3 on transfected HEK293 cells (human); test: as above
# [6] = biological target: recombinant human calcium channel α1B-1β1-3 on transfected HEK293 cells (human); test: as above
# [7] = biological target: recombinant human calcium channel α1B-1α2bβ1-2 on transfected HEK293 cells (human); test: as above
# [8] = biological target: recombinant human calcium channel α1B-2β1-2 on transfected HEK293 cells (human); test: as above
# [9] = biological target: T1, recombinant human calcium channel α1B-1α2b on transfected HEK293 cells (human); test: as above
# [10] = biological target: T1, recombinant human calcium channel …
# [11] = biological target: human calcium channel α1B-1 subunit alone on transfected HEK293 cells (human)
# Sequence of human calcium channel α1B-1 subunit alone on transfected HEK293 cells (human) (B1AQK5 whole entry): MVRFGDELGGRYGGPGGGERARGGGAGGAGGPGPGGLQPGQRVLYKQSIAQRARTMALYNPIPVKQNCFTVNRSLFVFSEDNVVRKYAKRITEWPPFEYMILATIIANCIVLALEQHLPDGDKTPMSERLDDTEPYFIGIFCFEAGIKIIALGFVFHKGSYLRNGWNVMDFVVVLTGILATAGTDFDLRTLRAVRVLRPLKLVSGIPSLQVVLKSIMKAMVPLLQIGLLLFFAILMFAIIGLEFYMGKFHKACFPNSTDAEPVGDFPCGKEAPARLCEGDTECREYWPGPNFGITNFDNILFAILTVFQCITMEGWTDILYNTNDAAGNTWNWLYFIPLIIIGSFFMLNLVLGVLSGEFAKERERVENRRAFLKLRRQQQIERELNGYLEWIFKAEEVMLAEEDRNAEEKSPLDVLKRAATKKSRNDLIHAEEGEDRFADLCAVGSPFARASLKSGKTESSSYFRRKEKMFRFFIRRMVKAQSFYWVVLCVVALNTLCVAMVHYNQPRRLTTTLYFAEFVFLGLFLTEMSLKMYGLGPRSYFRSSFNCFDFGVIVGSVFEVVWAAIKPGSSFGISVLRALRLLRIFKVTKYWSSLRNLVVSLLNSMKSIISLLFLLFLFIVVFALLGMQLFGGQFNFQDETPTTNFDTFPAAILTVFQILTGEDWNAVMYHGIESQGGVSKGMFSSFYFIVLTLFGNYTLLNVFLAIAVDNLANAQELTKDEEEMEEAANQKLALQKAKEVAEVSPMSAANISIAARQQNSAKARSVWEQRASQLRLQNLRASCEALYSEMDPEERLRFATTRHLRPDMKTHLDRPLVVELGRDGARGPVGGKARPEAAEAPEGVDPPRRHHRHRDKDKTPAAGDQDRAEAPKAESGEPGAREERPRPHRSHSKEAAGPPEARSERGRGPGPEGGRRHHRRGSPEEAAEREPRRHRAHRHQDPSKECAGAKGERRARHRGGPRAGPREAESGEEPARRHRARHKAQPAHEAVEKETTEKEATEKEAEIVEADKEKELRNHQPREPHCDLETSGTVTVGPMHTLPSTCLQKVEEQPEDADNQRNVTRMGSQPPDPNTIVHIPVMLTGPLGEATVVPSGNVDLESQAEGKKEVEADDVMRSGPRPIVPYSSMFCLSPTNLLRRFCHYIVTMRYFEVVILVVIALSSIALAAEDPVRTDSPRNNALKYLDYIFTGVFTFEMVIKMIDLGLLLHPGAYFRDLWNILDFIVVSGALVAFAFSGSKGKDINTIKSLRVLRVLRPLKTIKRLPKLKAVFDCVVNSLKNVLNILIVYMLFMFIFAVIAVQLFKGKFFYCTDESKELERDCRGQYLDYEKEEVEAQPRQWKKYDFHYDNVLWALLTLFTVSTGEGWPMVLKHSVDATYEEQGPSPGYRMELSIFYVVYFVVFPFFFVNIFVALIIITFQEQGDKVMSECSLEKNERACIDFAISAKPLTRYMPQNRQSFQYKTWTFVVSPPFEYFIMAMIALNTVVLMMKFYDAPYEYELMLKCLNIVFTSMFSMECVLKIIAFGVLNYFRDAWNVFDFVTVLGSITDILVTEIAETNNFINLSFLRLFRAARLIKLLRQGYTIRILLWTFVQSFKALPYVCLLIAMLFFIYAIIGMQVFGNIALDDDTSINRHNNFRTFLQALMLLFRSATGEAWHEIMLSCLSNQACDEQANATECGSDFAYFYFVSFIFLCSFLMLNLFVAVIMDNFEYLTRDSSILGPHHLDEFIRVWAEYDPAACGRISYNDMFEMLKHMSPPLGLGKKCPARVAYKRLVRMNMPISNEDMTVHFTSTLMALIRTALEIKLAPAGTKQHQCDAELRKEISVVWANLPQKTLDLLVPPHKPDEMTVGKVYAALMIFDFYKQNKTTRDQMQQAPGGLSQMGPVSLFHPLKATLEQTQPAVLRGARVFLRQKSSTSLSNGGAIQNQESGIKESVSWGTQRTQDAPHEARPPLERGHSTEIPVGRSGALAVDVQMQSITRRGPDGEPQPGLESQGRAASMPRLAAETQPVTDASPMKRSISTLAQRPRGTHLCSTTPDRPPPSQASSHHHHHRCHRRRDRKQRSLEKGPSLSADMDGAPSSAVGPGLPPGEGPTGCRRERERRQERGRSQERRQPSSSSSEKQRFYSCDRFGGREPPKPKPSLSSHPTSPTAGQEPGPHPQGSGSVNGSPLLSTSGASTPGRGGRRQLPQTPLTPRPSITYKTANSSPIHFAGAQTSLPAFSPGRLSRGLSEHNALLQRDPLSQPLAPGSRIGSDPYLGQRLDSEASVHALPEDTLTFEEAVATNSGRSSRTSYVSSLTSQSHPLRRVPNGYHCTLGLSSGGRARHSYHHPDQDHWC
# Sequence of recombinant human calcium channel α1B-1β1-3 on transfected HEK293 cells (human) (B1AQK5 whole entry, chain 1 of 2): as the sequence (B1AQK5 whole entry) above
# Sequence of recombinant human calcium channel α1B-1β1-3 on transfected HEK293 cells (human) (A8K114 whole entry, chain 2 of 2, further chain): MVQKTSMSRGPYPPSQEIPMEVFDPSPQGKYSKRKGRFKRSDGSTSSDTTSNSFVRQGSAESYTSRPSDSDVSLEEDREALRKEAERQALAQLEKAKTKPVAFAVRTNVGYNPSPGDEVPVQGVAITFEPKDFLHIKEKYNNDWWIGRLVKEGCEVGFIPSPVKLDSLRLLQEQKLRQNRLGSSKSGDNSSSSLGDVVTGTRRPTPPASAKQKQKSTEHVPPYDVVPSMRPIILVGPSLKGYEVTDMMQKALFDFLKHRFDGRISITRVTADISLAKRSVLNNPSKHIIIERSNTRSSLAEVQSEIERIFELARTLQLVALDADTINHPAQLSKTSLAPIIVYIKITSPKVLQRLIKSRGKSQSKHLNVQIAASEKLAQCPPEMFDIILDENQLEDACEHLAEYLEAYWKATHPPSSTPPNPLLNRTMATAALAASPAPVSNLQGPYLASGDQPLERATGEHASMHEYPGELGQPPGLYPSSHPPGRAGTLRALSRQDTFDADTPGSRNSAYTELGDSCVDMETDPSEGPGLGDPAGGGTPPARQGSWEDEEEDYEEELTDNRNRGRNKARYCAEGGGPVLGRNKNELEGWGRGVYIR
# Sequence of recombinant human calcium channel α1B-1β1-2 on transfected HEK293 cells (human) (B1AQK5 whole entry, chain 1 of 2): as the sequence (B1AQK5 whole entry) above
# Sequence of recombinant human calcium channel α1B-1β1-2 on transfected HEK293 cells (human) (A8K114 whole entry, chain 2 of 2, further chain): as the sequence (A8K114 whole entry, chain 2 of 2, further chain) above
# T1 sequence (B1AQK5 whole entry, chain 1 of 2): as the sequence (B1AQK5 whole entry) above
# T1 sequence (P54289 whole entry, chain 2 of 2, further chain): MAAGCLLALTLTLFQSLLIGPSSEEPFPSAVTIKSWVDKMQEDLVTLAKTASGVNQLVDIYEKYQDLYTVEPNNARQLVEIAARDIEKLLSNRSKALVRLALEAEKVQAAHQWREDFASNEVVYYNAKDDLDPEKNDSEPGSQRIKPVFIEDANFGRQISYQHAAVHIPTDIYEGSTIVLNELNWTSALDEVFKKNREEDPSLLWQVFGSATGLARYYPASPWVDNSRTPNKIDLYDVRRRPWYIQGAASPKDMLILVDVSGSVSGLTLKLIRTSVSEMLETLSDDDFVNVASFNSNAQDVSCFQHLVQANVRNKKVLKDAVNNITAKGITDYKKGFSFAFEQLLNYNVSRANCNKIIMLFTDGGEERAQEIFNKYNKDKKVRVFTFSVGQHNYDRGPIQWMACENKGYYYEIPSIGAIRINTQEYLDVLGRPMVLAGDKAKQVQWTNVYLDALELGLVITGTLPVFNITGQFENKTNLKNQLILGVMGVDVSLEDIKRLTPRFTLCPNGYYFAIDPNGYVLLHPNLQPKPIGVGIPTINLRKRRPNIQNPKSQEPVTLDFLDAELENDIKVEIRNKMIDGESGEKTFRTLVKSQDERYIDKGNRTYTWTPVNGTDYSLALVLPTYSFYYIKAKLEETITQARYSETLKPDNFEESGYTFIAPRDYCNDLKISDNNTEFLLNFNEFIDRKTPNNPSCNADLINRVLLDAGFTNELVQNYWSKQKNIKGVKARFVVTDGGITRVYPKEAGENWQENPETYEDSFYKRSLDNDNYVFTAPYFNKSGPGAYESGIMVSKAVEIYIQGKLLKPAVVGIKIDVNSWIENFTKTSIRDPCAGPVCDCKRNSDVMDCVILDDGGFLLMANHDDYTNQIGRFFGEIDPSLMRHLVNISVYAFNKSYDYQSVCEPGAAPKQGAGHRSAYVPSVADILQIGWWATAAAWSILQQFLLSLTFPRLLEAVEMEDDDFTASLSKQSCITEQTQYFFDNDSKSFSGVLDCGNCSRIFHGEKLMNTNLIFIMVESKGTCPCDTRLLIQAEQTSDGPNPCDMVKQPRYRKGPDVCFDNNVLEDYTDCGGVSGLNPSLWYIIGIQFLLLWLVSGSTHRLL
molecule,measurement,setting,value
ω-CgTx (from UniProt P01522 46-72) (peptide),Kd,[1],0.0546 nM
same,binding capacity (Bmax) (sites per cell),[1],28700
125I-ω-CgTx GVIA (from UniProt P01522 46-72) (peptide),Bmax (sites/cell),[2],5760 sites/cell
same,Kd,[2],0.0179 nM
same,fold change of surface binding (Bmax) against α1B-1 alone,[2],8 fold
same,Bmax (sites/cell),[3],2940 sites/cell
same,Kd,[3],0.0222 nM
same,Bmax (sites/cell),[4],19400 sites/cell
same,Kd,[4],0.053 nM
same,fold change of surface receptor density (Bmax) against α1B-2β1-2,[4],9 fold
same,Bmax (sites/cell),[5],37700 sites/cell
same,Kd,[5],0.0443 nM
same,fold change of binding capacity (Bmax) against α1B-2α2bβ1-2,[5],2 fold
same,fold change of surface receptor density (Bmax) against α1B-2β1-3,[5],13 fold
same,Bmax (sites/cell),[6],8730 sites/cell
same,Kd,[6],0.0179 nM
same,fold change of surface binding (Bmax) against α1B-1 alone,[6],10 fold
same,Bmax (sites/cell),[7],45300 sites/cell
same,Kd,[7],0.0549 nM
same,fold change of binding sites per cell (Bmax) against α1B-2α2bβ1-2,[7],2.5 fold
same,fold change of surface receptor density (Bmax) against α1B-1β1-2,[7],8 fold
same,Bmax (sites/cell),[8],2130 sites/cell
same,Kd,[8],0.0164 nM
"CKSPGSSCSPTSYNCCRSCNPYTKRCY (modifications not checked) [125I-ω-CgTx GVIA, P01522 46-72]",fold change of binding capacity (Bmax) against α1B-1 alone,[9],3 fold
same,Bmax (sites/cell),[10],2260 sites/cell
same,Kd,[10],0.0846 nM
same,Bmax (sites/cell),[11],757 sites/cell
same,Kd,[11],0.0317 nM
